Results from US11746336B2, “Producing 3-hydroxycarboxylic acid and ketone using polyketide synthases” (The Regents of the University of California, priority 2014, dated 2023).
One block for each molecule: values may come before it.

Columns and labels:
LipPks1+TE [1] = molecular target: T1, LipPks1+TE (Kitasatospora aureofaciens, UniProt Q30CS2); test: Steady-state kinetic analysis of LipPks1+TE, extension substrate; format: biochemical, Streptomyces aureofaciens Tü117; settings: tested as potential extender substrate (data not shown)
Procedure: Each time point was set up in a reaction volume of 75 μL. Samples containing 10 μM, 20 μM, or 40 μM methylmalonyl-CoA were individually incubated with 500 μM isovaleryl-CoA and 500 μM NADPH in the presence of 0.5 μM LipPks1+TE in 100 mM phosphate buffer, pH 7.2, containing 2.5 mM TCEP at 23° C. The reactions were quenched at different time points by adding 75 μL of methanol and subsequently filtered with an Amicon Ultra-0.5 mL Centrifugal Filter, 3K device (Millipore) at 23° C. 10 μL of the resulting solutions were analyzed by LC-MS. Authentic standard 1e was used to quantify the products in the LC-MS analysis. We assumed that ionization efficiencies of diastereomers were identical.
LC separation of the enzymatically generated products conducted at 50° C. with an Inertsil ODS-3 reverse-phase column (250 mm length, 2.1 mm internal diameter, […] particle size; GL Sciences) using a 1100 series high-performance liquid chromatography system (Agilent Technologies). The mobile phase was composed of 0.2% formic acid in water (solvent A) and 0.2% formic acid in methanol (solvent B). Products were separated using the following gradient: 60% to 100% B for 10 min, held at 100% B for 2 min, 100% to 60% B for 1 min, held at 60% B for 17 min. A flow rate of 0.14 mL/min was used throughout. […]

LipPks1+TE [2] = molecular target: T1, LipPks1+TE; test: Steady-state kinetic analysis of LipPks1+TE, starter substrates (LC-MS quantification of products 1a-f); format: biochemical, Streptomyces aureofaciens Tü117
Procedure: (§1) A Bradford protein assay was used to measure the concentration of LipPks1+TE. […] Each time point was set up in a reaction volume of 75 μL. Samples containing 20 μM, 40 μM, 80 μM, 160 μM, or 320 μM of acyl-CoA were individually incubated with 200 μM methymalonyl-CoA and 500 μM NADPH in the presence of 0.5 μM LipPks1+TE in 100 mM phosphate buffer, pH 7.2, containing 2.5 mM TCEP at 23° C. The reactions were quenched at different time points by adding 75 μL of methanol and subsequently filtered with an Amicon Ultra-0.5 mL Centrifugal Filter, 3K device (Millipore) at 23° C. 10 μL of the resulting solutions were analyzed by liquid chromatography-mass spectrometry (LC-MS). […] We assumed that ionization efficiencies of diastereomers were identical.
(§2) LC separation of the enzymatically generated products conducted at 50° C. with an Inertsil ODS-3 reverse-phase column (250 mm length, 2.1 mm internal diameter, 3 μM particle size; GL Sciences) using a 1100 series high-performance liquid chromatography system (Agilent Technologies). The mobile phase was composed of 0.2% formic acid in water (solvent A) and 0.2% formic acid in methanol (solvent B). Products were separated using the following gradient: 60% to 100% B for 10 min, held at 100% B for 2 min, 100% to 60% B for 1 min, held at 60% B for 17 min. A flow rate of 0.14 mL/min was used throughout.
(§3) The LC system was coupled to an Agilent Technologies LC-MSD SL electrospray ionization mass (ESI MS) spectrometer. Nitrogen gas was used as both the nebulizing and drying gas to facilitate the production of gas-phase ions. The drying and nebulizing gases were set to 10 L/min and 20 lb/in2, respectively, and a drying gas temperature of 300° C. was used throughout. ESI was conducted in the negative-ion mode with a capillary voltage of 4 kV. […] The instrument was tuned for a range of m/z 50 to 3000 via the Agilent ES tuning mix. Data acquisition and processing were performed by an Agilent Chemstation (Agilent Technologies; Santa Clara, Calif.).

[3] = tested on: CCCC(=O)SCCNC(=O)CCNC(=O)[C@H](O)C(C)(C)COP(=O)(O)OP(=O)(O)OC[C@H]1O[C@@H](n2cnc3c(N)ncnc32)[C@H](O)[C@@H]1OP(=O)(O)O; test: purified protein, by the assay type; settings: other: KM of the starter acyl-CoA, 200 μM methylmalonyl-CoA, 500 μM NADPH, 0.5 μM LipPks1+TE, pH 7.2, 23° C.
[4] = tested on: CC(C)(C)C(=O)SCCNC(=O)CCNC(=O)[C@H](O)C(C)(C)COP(=O)(O)OP(=O)(O)OC[C@H]1O[C@@H](n2cnc3c(N)ncnc32)[C@H](O)[C@@H]1OP(=O)(O)O; test: Steady-state kinetic analysis of LipPks1+TE, starter substrates (LC-MS quantification of products 1a-f); format: biochemical, Streptomyces aureofaciens Tü117; settings: other: KM of the starter acyl-CoA, 200 μM methylmalonyl-CoA, 500 μM NADPH, 0.5 μM LipPks1+TE, pH 7.2, 23° C.
Procedure: as §1, §2, §3

[5] = tested on: CC(C)C(=O)SCCNC(=O)CCNC(=O)[C@H](O)C(C)(C)COP(=O)(O)OP(=O)(O)OC[C@H]1O[C@@H](n2cnc3c(N)ncnc32)[C@H](O)[C@@H]1OP(=O)(O)O; test: as above; format: biochemical, Streptomyces aureofaciens Tü117; settings: other: KM of the starter acyl-CoA, 200 μM methylmalonyl-CoA, 500 μM NADPH, 0.5 μM LipPks1+TE, pH 7.2, 23° C.
Procedure: as §1, §2, §3

[6] = tested on: CC(C)CC(=O)SCCNC(=O)CCNC(=O)[C@H](O)C(C)(C)COP(=O)(O)OP(=O)(O)OC[C@H]1O[C@@H](n2cnc3c(N)ncnc32)[C@H](O)[C@@H]1OP(=O)(O)O; test: as above; format: biochemical, Streptomyces aureofaciens Tü117; settings: other: KM of the starter acyl-CoA, 200 μM methylmalonyl-CoA, 500 μM NADPH, 0.5 μM LipPks1+TE, pH 7.2, 23° C.
Procedure: as §1, §2, §3

[7] = tested on: CCC(=O)SCCNC(=O)CCNC(=O)[C@H](O)C(C)(C)COP(=O)(O)OP(=O)(O)OC[C@H]1O[C@@H](n2cnc3c(N)ncnc32)[C@H](O)[C@@H]1OP(=O)(O)O; test: as above; format: biochemical, Streptomyces aureofaciens Tü117; settings: other: KM of the starter acyl-CoA, 200 μM methylmalonyl-CoA, 500 μM NADPH, 0.5 μM LipPks1+TE, pH 7.2, 23° C.
Procedure: as §1, §2, §3

- acceptance as extender substrate by the AT domain (LipPks1+TE [1]): not accepted
Molecule: CC(C)(COP(=O)(O)OP(=O)(O)OC[C@H]1O[C@@H](n2cnc3c(N)ncnc32)[C@H](O)[C@@H]1OP(=O)(O)O)[C@@H](O)C(=O)NCCC(=O)NCCSC(=O)CC(=O)O [Malonyl-CoA]

- kcat (LipPks1+TE [2]; starter acyl-CoA 20-320 μM, 200 μM methylmalonyl-CoA, 500 μM NADPH, 0.5 μM LipPks1+TE, pH 7.2, 23° C.): 0.000883 s⁻¹
Molecule: CC(C)C(=O)SCCNC(=O)CCNC(=O)[C@H](O)C(C)(C)COP(=O)(O)OP(=O)(O)OC[C@H]1O[C@@H](n2cnc3c(N)ncnc32)[C@H](O)[C@@H]1OP(=O)(O)O [isobutyryl-CoA]

- product formation with starter substrate (LipPks1+TE [2]; 200 μM methylmalonyl-CoA with NADPH (data not shown)): No product was observed
Molecule: CC(=O)SCCNC(=O)CCNC(=O)[C@H](O)C(C)(C)COP(=O)(O)OP(=O)(O)OC[C@H]1O[C@@H](n2cnc3c(N)ncnc32)[C@H](O)[C@@H]1OP(=O)(O)O [acetyl-CoA]

Molecule: LipPks1+TE (Kitasatospora aureofaciens)
- Km [3]: 26.4 µM
- kcat [3]: 0.0006 s⁻¹
- kcat/Km [3]: 22.7 M⁻¹ s⁻¹
- Km [4]: 8.8 µM
- kcat [4]: 3.33e-05 s⁻¹
- kcat/Km [4]: 4.1 M⁻¹ s⁻¹
- Km [5]: 2.9 µM
- kcat [5]: 0.000883 s⁻¹
- kcat/Km [5]: 304.1 M⁻¹ s⁻¹
- Km [6]: 128.1 µM
- kcat [6]: 0.00483 s⁻¹
- kcat/Km [6]: 38 M⁻¹ s⁻¹
- Km [7]: 13.4 µM
- kcat [7]: 0.000933 s⁻¹
- kcat/Km [7]: 70.3 M⁻¹ s⁻¹
